This data set concerns the target prostate-specific antigen (PSA), enzymatically active, from human seminal fluid (human, UniProt P07288 25-261). Kind of data set: chemiluminescence sandwich assay on Si NW surface.

prostate-specific antigen (PSA), enzymatically active, from human seminal fluid, sequence (P07288 25-261): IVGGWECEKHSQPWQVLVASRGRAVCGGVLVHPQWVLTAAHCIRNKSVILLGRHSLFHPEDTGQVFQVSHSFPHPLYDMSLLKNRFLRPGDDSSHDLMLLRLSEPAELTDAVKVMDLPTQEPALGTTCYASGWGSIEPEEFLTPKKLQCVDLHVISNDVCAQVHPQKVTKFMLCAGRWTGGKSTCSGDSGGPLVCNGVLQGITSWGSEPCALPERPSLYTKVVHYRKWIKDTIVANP

B1: nonspecific aptamer (32 nt control) (ssDNA)
DNA: AAAAATTAATTTCGAGCGGTAGTTTATCGAAA
modifications: 5'-H3N-(CH2)6
With B1, the binding result was “no binding”.

Values taken from PMC6644640.
